From patent US11021687B2, “Production of differentiated enteroendocrine cells and insulin producing cells” (Massachusetts Institute of Technology, priority 2016, dated 2021)

How the values were obtained:
Format in all cases: cell-based, mouse
[1] = tested on: gastrointestinal stem cells; assay: Insulin / Nkx6.1 mRNA expression (qPCR), 3-stage conversion to insulin producing cells; conditions: added in Stage 1, combined with RepSox
Source text: “mRNA Insulin Expression Assay” refers to an assay used to determine the relative insulin mRNA expression level of a cell population. For example, the assay can determine the insulin mRNA level expressed in a cell population treated to increase the expression of insulin in the cells, as compared to an untreated population of cells. In an exemplary mRNA Insulin Expression Assay, the cells were collected and the RNA is extracted from the cells using an RNA extraction kit (such as RNeasy Mini kit, Qiagen). The insulin expression level is then assessed by Quantitative real-time PCR using a one-step qPCR kit (such as QuantiTech Probe PCR kit, Qiagen) and Ins1 or Ins2 primers and probes (such as the commercially available TaqMan probe for mouse Ins1 and Ins2, Life Technologies). The relative insulin mRNA expression can be determined relative to a baseline or other marker, such as Hprt mRNA expression level or other baseline marker.
Organoids or differentiated cells were harvested and RNA was extracted using RNeasy Micro Kit (Qiagen) according to the manufacturer's instruction. Quantitative real-time PCR was performed with QuantiTect Probe PCR kit (Qiagen) using commercially available primers and TaqMan probes (Life Technologies). […]

intestinal stem cells [2] = assay: mRNA expression (qPCR) of ChgA and other lineage markers in differentiated intestinal stem cells; conditions: Noggin in step 2
Source text: “mRNA ChgA Expression Assay” refers to an assay used to determine the relative ChgA mRNA expression level in a cell population. For example, the assay can determine ChgA mRNA expression level of a differentiated cell population following treatment with agents being tested, as compared to an untested population of post-natal stem cells. In an example of an mRNA ChgA Expression Assay, the cells were collected and the RNA is extracted from the cells using an RNA extraction kit (such as RNeasy Mini kit, Qiagen). The ChgA expression level is then assessed by Quantitative real-time PCR using a one-step qPCR kit (such as QuantiTech Probe PCR kit, Qiagen) and ChgA primers and probes (such as commercially available Taqman probe for mouse ChgA, Life Technologies).
(§1) Organoids or differentiated cells were harvested and RNA was extracted using RNeasy Micro Kit (Qiagen) according to the manufacturer's instruction. Quantitative real-time PCR was performed with QuantiTect Probe PCR kit (Qiagen) using commercially available primers and TaqMan probes (Life Technologies).
Cells were then cultured with EGF, Noggin, and DAPT (END), as well as small molecules. After 2-3 days of differentiation, the cells lysed and ChgA expression was measured by qRT-PCR.
Small molecules were further validated using a 24-well plate culture and the differentiation system. […]

intestinal stem cells [3] = assay: Ngn3 mRNA expression during EEC differentiation; conditions: 2 days
Description: “Ngn3 Assay” as used herein is an assay used to determine the extent of expression of Ngn3 in cells, such as cells subjected to a differentiation protocol. In an exemplary Ngn3 Assay, RNA is isolated from cells that have been cultured according to a differentiation protocol, and quantitative real-time PCR is performed using commercially available primers and probes (such as Taqman probes) to determine an extent of Ngn3 expression in the cells.
as §1
There has been prior speculation that Ngn3 positive secretory progenitors differentiate to EECs (Genes Dev. 2002).

B1: FGF10: growth factor added in Stage 1 (protein, UniProt O15520 38-208, looked up)
Fibroblast growth factor 10: QALGQDMVSPEATNSSSSSFSSPSSAGRHVRSYNHLQGDVRWRKLFSFTKYFLKIEKNGKVSGTKKENCPYSILEITSVEIGVVAVKAINSNYYLAMNKKGKLYGSKEFNNDCKLKERIEENGYNTYASFNWQHNGRQMYVALNGKGAPRRGQKTRRKNTSAHFLPMVVHS
[1]
  Insulin expression: further increased

B2: Noggin: growth factor (protein, UniProt Q13253 28-232, looked up)
Noggin: QHYLHIRPAPSDNLPLVDLIEHPDPIFDPKEKDLNETLLRSLLGGHYDPGFMATSPPEDRPGGGGGAAGGAEDLAELDQLLRQRPSGAMPSEIKGLEFSEGLAQGKKQRLSKKLRRKLQMWLWSQTFCPVLYAWNDLGSRFWPRYVKVGSCFSKRSCSVPEGMVCKPSKSVHLTVLRWRCQRRGGQRCGWIPIQYPIISECKCSC
Intestinal stem cells [2]
  effect on EEC differentiation: marginal

B3: R-spondin1: Wnt activator, a protein belonging to the R-Spondin family (protein, UniProt Q2MKA7 21-263, looked up)
R-spondin-1: SRGIKGKRQRRISAEGSQACAKGCELCSEVNGCLKCSPKLFILLERNDIRQVGVCLPSCPPGYFDARNPDMNKCIKCKIEHCEACFSHNFCTKCKEGLYLHKGRCYPACPEGSSAANGTMECSSPAQCEMSEWSPWGPCSKKQQLCGFRRGSEERTRRVLHAPVGDHAACSDTKETRRCTVRRVPCPEGQKRRKGGQGRRENANRNLARKESKEAGAGSRRRKGQQQQQQQGTVGPLTSAGPA
Intestinal stem cells [3]
  Ngn3 expression on removal of R-spondin1: strong reduction
